Square brackets hold non-standard residues; d marks the D form. pT = C[C@@H](OP(=O)(O)O)[C@H](N)C(=O)O

We go through four substances from US7138236B1, “Interactions of ATM, ATR or DAN-PK with p53” (Kudos Pharmaceuticals Limited, priority 1997, dated 2006).

In the experiment the target is Mdm-2 (Homo sapiens, UniProt Q00987). Put plainly: Mdm-2 binding of p53-derived peptides by ELISA analysis. The conditions noted are these: peptides containing p53 residues 11 to 25, unphosphorylated or phosphorylated on Ser15 and/or Thr18. As to the method: To test whether phosphorylation on Ser15 or Thr18 of p53 affects its interaction with Mdm-2, phosphorylated and unphosphorylated p53-derived peptides were generated and were assessed for Mdm-2 binding by ELISA analysis. The four peptides used contained p53 residues 11 to 25 (in the sequence (SEQ ID NO:11) NH2-SGSGEPPLSOETFSDLWKL-COOH; where the underlined sequence is that derived from p53) that were unphosphorylated (1); phosphorylated on residue equivalent to p53 residue Ser15(2); phosphorylated on residue equivalent to p53 residue Thr18(3); or phosphorylated on two residues, equivalent to p53 residue Ser15 and Thr18(4). […] We therefore conclude that phosphorylation on Thr18 of p53 has a dramatic effect on its interaction with […] and that phosphorylation of this site is likely to play a key role in regulating p53 responses in vivo.
Chain of Mdm-2 (Q00987 whole entry, species assumed, the tested form may be a part): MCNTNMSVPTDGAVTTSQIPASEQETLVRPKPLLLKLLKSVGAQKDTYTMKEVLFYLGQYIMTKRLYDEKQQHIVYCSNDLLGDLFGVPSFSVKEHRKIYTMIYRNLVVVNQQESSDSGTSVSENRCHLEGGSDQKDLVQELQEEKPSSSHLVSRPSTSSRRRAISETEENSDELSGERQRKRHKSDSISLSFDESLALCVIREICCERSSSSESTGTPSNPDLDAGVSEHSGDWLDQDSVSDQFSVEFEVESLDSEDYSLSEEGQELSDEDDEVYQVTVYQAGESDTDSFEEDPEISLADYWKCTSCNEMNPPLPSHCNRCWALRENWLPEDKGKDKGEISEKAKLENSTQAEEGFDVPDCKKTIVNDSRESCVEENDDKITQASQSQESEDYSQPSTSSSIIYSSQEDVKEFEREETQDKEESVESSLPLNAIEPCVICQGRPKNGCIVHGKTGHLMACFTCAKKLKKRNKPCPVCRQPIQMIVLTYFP
Background: ELISA stands for enzyme-linked immunosorbent assay.
For the substance “NH2-SGSGEPPLSOETFSDLWKL-COOH [3] (H-SGSGEPPLSQE[pT]FSDLWKL-OH; SMILES CC(C)C[C@H](NC(=O)[C@H](CCCCN)NC(=O)[C@H](Cc1c[nH]c2ccccc12)NC(=O)[C@H](CC(C)C)NC(=O)[C@H](CC(=O)O)NC(=O)[C@H](CO)NC(=O)[C@H](Cc1ccccc1)NC(=O)[C@@H](NC(=O)[C@H](CCC(=O)O)NC(=O)[C@H](CCC(N)=O)NC(=O)[C@H](CO)NC(=O)[C@H](CC(C)C)NC(=O)[C@@H]1CCCN1C(=O)[C@@H]1CCCN1C(=O)[C@H](CCC(=O)O)NC(=O)CNC(=O)[C@H](CO)NC(=O)CNC(=O)[C@@H](N)CO)[C@@H](C)OP(=O)(O)O)C(=O)O; UniProt P04637 11-25, looked up, fragment) [compound 3, peptide containing p53 residues 11 to 25, phosphorylated on residue equivalent to Thr18]”, the “Mdm-2 binding of p53-derived peptides” value is on record as “inhibited dramatically”. On to “NH2-SGSGEPPLSOETFSDLWKL-COOH [compound 4]”, for which the “Mdm-2 binding of p53-derived peptides” value was “inhibited dramatically”. As to “NH2-SGSGEPPLSOETFSDLWKL-COOH [peptide 1] (H-SGSGEPPLSQETFSDLWKL-OH; UniProt P04637 11-25, looked up, fragment) [peptide containing p53 residues 11 to 25, unphosphorylated]”, the “Mdm-2 binding of p53-derived peptides” value is “occurred effectively”. Turning to “NH2-SGSGEPPLSOETFSDLWKL-COOH [peptide 2] (EPPLSQETFSDLWKL; phospho-Ser15; N-terminal SGSG linker; UniProt P04637 11-25, looked up, fragment) [peptide containing p53 residues 11 to 25, phosphorylated on residue equivalent to Ser15]”, the “Mdm-2 binding of p53-derived peptides” value is listed as “only impaired slightly”.
